Measured values: PMC3382979 (Journal of Structural Biology, 2012)
Changes are numbered by the printed parent chain. Numbers in names are those of the source.

B1: His6-NSF-D1D2-myc fragment (206-744) (domain or fragment, Chinese hamster (from CHO cells), UniProt P18708 206-744, looked up)
chain: QSIINPDWNFEKMGIGGLDKEFSDIFRRAFASRVFPPEIVEQMGCKHVKGILLYGPPGCGKTLLARQIGKMLNAREPKVVNGPEILNKYVGESEANIRKLFADAEEEQRRLGANSGLHIIIFDEIDAICKQRGSMAGSTGVHDTVVNQLLSKIDGVEQLNNILVIGMTNRPDLIDEALLRPGRLEVKMEIGLPDEKGRLQILHIHTARMRGHQLLSADVDIKELAVETKNFSGAELEGLVRAAQSTAMNRHIKASTKVEVDMEKAESLQVTRGDFLASLENDIKPAFGTNQEDYASYIMNGIIKWGDPVTRVLDDGELLVQQTKNSDRTPLVSVLLEGPPHSGKTALAAKIAEESNFPFIKICSPDKMIGFSETAKCQAMKKIFDDAYKSQLSCVVVDDIERLLDYVPIGPRFSNLVLQALLVLLKKAPPQGRKLLIIGTTSRKDVLQEMEMLNAFSTTIHVPNIATGEQLLEALELLGNFKDKERTTIAQQVKGKKVWIGIKKLLMLIEMSLQMDPEYRVRKFLALLREEGASPLDFD
modifications: (Ni2+-NTA)2-Cy3 bound to the His6 tag (ultracentrifugation only)
B2: His6-NSF-D2 fragment (488-744) (domain or fragment, Chinese hamster (from CHO cells), UniProt P18708 488-744, looked up)
chain: IKPAFGTNQEDYASYIMNGIIKWGDPVTRVLDDGELLVQQTKNSDRTPLVSVLLEGPPHSGKTALAAKIAEESNFPFIKICSPDKMIGFSETAKCQAMKKIFDDAYKSQLSCVVVDDIERLLDYVPIGPRFSNLVLQALLVLLKKAPPQGRKLLIIGTTSRKDVLQEMEMLNAFSTTIHVPNIATGEQLLEALELLGNFKDKERTTIAQQVKGKKVWIGIKKLLMLIEMSLQMDPEYRVRKFLALLREEGASPLDFD
modifications: (Ni2+-NTA)2-Cy3 bound to the His6 tag (ultracentrifugation)
B3: His6-NSF-myc (1-744), N-Ethylmaleimide Sensitive Factor, wild type (enzyme, Chinese hamster (from CHO cells), UniProt P18708 1-744, looked up)
chain: MAGRSMQAARCPTDELSLSNCAVVSEKDYQSGQHVIVRTSPNHKYIFTLRTHPSVVPGSVAFSLPQRKWAGLSIGQEIEVALYSFDKAKQCIGTMTIEIDFLQKKNIDSNPYDTDKMAAEFIQQFNNQAFSVGQQLVFSFNDKLFGLLVKDIEAMDPSILKGEPASGKRQKIEVGLVVGNSQVAFEKAENSSLNLIGKAKTKENRQSIINPDWNFEKMGIGGLDKEFSDIFRRAFASRVFPPEIVEQMGCKHVKGILLYGPPGCGKTLLARQIGKMLNAREPKVVNGPEILNKYVGESEANIRKLFADAEEEQRRLGANSGLHIIIFDEIDAICKQRGSMAGSTGVHDTVVNQLLSKIDGVEQLNNILVIGMTNRPDLIDEALLRPGRLEVKMEIGLPDEKGRLQILHIHTARMRGHQLLSADVDIKELAVETKNFSGAELEGLVRAAQSTAMNRHIKASTKVEVDMEKAESLQVTRGDFLASLENDIKPAFGTNQEDYASYIMNGIIKWGDPVTRVLDDGELLVQQTKNSDRTPLVSVLLEGPPHSGKTALAAKIAEESNFPFIKICSPDKMIGFSETAKCQAMKKIFDDAYKSQLSCVVVDDIERLLDYVPIGPRFSNLVLQALLVLLKKAPPQGRKLLIIGTTSRKDVLQEMEMLNAFSTTIHVPNIATGEQLLEALELLGNFKDKERTTIAQQVKGKKVWIGIKKLLMLIEMSLQMDPEYRVRKFLALLREEGASPLDFD
modifications: (Ni2+-NTA)2-Cy3 bound to the His6 tag (ultracentrifugation only; 1 mole of dye per mole of NSF hexamer)
B4: His6-NSF-L441A-myc (enzyme, Chinese hamster (from CHO cells), UniProt P18708 1-744, looked up)
chain: B3 chain with L441A
modifications: (Ni2+-NTA)2-Cy3 bound to the His6 tag (ultracentrifugation)
B5: His6-NSF-R67A-myc (enzyme, Chinese hamster (from CHO cells), UniProt P18708 1-744, looked up)
chain: B3 chain with R67A
modifications: (Ni2+-NTA)2-Cy3 bound to the His6 tag (ultracentrifugation)

Biological target: the molecule itself
Test: AUC

Protein | % Hexamer
B1 | 14.1 ± 0.31%
B2 | 10.3 ± 0.63%
B3 | 47 ± 3.7%
B4 | 34.2 ± 2.78%
B5 | 38.7 ± 4.21%

Biological target: the molecule itself
Test: AUC
Remark: another data set of the same source

Protein | % Hexamer
B1 | 44 ± 2.93%
B2 | 28.8 ± 1.92%
B3 | 62 ± 5.74%
B4 | 34.4 ± 1.06%
B5 | 55.6 ± 12.5%

Biological target: the molecule itself
Test: negative-stain electron microscopy, single particle analysis

Protein | stoichiometry N
B1 | 6
B3 | 6
